According to patent US20160033502:

Molecular target: T1, activated insulin receptor (pYpY1162/1163-IR) of mouse MS-1 endothelial cells, P15208
T1 chain: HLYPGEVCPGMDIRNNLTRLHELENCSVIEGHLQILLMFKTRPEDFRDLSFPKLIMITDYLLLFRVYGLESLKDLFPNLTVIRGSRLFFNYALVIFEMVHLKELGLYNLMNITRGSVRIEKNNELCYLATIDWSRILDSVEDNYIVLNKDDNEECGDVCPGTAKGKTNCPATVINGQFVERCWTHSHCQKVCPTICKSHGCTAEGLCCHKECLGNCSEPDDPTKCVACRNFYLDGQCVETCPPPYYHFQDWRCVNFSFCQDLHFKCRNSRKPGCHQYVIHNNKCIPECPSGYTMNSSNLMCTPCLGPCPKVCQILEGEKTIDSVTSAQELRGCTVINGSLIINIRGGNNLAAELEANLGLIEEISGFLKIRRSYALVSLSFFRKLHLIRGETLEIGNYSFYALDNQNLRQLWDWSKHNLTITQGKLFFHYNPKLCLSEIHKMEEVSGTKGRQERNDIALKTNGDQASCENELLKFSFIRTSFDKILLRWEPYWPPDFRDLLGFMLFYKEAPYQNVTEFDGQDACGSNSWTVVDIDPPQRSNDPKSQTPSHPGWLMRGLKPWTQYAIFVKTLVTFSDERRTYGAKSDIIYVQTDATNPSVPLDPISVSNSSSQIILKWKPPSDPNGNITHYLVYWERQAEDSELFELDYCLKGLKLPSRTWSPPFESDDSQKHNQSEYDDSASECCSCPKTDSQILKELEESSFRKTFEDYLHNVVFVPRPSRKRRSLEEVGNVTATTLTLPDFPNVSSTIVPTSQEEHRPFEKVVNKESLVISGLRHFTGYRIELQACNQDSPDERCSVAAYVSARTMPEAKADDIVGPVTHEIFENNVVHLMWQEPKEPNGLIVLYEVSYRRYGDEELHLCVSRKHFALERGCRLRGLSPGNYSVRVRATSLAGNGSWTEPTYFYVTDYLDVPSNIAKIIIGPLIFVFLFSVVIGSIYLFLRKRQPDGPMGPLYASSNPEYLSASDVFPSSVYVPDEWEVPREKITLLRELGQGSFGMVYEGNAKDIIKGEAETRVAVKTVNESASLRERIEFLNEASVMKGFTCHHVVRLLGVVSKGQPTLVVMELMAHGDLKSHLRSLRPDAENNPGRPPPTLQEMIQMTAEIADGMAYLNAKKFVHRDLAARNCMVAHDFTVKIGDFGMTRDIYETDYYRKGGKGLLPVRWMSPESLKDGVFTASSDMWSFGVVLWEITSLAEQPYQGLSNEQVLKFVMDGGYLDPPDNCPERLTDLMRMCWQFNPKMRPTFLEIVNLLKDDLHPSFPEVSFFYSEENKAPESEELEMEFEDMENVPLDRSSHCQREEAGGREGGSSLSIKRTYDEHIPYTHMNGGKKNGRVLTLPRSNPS

B1: HA-tagged C215S mutant form of full-length PTP1B (protein)
chain: MEMEKEFEQIDKSGSWAAIYQDIRHEASDFPCRVAKLPKNKNRNRYRDVSPFDHSRIKLHQEDNDYINASLIKMEEAQRSYILTQGPLPNTCGHFWEMVWEQKSRGVVMLNRVMEKGSLKCAQYWPQKEEKEMIFEDTNLKLTLISEDIKSYYTVRQLELENLTTQETREILHFHYTTWPDFGVPESPASFLNFLFKVRESGSLSPEHGPVVVHSSAGIGRSGTFCLADTCLLLMDKRKDPSSVDIKKVLLEMRKFRMGLIQTADQLRFSYLAVIEGAKFIMGDSSVQDQWKELSHEDLEPPPEHIPPPPRPPKRILEPHNGKCREFFPNHQWVKEETQEDKDCPIKEEKGSPLNAAPYGIESMSQDTEVRSRVVGGSLRGAQAASPAKGEPSLPEKDEDHALSYWKPFLVNMCVATVLTAGAYLCYRFLFNSNT
IR pYpY1162/1163 phosphorylation (immunoblot, ratio of phosphorylated InRβ to total InRβ): such eNOS ablation-caused defect of insulin signaling was significantly restored by ectopic expression of PTP1B-C215S
